Ends that are not written are not given here.
T1: purified insulin degrading enzyme (IDE) (UniProt P14735)
T1 sequence (looked up): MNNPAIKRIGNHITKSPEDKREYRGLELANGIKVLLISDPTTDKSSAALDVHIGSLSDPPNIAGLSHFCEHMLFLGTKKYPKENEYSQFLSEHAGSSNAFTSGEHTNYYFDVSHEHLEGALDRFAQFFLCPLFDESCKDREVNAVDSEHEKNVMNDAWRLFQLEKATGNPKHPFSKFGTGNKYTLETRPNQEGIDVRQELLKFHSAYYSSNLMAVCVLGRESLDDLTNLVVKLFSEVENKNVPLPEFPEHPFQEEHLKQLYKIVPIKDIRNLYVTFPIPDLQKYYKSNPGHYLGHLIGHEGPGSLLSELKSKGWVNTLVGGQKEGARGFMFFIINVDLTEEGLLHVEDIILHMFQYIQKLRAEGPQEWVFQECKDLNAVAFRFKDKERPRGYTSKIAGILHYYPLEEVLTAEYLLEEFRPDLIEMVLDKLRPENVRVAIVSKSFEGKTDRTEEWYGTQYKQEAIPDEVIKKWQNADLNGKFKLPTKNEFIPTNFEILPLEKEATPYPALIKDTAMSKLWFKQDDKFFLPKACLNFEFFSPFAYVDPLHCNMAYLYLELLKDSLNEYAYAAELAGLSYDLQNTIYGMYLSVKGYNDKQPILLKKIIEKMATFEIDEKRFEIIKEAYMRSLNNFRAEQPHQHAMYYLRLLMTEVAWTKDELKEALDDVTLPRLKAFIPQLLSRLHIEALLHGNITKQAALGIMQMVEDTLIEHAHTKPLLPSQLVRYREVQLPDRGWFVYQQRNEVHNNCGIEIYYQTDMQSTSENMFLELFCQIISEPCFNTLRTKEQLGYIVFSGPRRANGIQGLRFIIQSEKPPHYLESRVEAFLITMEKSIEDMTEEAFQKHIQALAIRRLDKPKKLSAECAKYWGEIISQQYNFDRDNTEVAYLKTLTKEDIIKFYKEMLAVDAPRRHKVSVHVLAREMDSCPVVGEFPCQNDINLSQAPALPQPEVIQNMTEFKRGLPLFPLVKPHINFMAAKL


Columns and labels:
Assay in all cases: cell-based or functional assay
[1] = molecular target: human natriuretic peptide receptor B (NPR-B) (human) (UniProt P20594)
human natriuretic peptide receptor B (NPR-B) (human), sequence (P20594 23-1047): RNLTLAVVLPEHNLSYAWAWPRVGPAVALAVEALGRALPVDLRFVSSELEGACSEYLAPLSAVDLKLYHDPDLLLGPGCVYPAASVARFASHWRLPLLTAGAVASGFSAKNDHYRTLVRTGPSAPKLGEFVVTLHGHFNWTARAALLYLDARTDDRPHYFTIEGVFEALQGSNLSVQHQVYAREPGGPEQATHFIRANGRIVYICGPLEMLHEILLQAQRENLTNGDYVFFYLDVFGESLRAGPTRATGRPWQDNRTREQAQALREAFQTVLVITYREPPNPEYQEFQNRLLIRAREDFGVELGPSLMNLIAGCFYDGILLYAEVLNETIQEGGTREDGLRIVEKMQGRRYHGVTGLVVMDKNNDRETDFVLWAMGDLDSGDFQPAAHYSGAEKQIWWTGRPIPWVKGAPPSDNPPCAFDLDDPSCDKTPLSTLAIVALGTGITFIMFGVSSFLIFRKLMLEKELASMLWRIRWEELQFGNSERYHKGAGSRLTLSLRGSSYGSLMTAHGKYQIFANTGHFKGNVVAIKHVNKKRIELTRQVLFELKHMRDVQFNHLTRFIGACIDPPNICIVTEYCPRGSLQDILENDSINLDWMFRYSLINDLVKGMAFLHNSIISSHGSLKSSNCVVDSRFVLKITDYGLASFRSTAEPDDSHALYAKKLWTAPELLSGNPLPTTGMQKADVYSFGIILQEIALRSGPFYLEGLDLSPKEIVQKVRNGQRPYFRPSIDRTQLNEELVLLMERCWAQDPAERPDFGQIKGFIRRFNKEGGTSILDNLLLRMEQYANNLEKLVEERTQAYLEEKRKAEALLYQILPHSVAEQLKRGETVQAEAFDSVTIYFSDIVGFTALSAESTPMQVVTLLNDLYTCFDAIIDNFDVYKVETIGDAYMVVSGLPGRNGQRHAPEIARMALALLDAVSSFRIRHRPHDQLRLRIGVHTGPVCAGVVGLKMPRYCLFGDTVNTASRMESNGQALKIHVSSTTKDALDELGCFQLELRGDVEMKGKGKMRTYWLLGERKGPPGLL

[2] = molecular target: purified neutral endopeptidase (NEP) (UniProt P08473)
purified neutral endopeptidase (NEP), sequence (P08473 52-750 limits assumed): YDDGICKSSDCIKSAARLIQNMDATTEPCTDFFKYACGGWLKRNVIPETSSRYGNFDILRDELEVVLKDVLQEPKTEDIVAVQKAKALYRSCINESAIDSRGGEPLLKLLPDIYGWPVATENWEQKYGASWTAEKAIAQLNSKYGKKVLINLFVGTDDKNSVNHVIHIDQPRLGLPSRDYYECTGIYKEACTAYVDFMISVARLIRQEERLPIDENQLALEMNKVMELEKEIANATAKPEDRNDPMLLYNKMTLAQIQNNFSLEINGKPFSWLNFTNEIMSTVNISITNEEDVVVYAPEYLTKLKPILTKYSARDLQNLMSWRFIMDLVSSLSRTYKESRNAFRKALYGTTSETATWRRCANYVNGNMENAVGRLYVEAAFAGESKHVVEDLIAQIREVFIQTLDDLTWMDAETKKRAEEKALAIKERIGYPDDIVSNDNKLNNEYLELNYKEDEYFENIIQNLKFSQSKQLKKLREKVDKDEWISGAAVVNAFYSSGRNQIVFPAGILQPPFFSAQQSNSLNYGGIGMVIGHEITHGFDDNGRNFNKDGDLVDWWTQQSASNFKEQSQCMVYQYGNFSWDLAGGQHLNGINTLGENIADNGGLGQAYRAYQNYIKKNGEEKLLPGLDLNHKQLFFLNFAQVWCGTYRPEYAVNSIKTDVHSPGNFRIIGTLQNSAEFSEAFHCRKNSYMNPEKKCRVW

[3] = molecular target: human natriuretic peptide receptor A (NPR-A) (human) (UniProt P16066)
human natriuretic peptide receptor A (NPR-A) (human), sequence (P16066 33-1061): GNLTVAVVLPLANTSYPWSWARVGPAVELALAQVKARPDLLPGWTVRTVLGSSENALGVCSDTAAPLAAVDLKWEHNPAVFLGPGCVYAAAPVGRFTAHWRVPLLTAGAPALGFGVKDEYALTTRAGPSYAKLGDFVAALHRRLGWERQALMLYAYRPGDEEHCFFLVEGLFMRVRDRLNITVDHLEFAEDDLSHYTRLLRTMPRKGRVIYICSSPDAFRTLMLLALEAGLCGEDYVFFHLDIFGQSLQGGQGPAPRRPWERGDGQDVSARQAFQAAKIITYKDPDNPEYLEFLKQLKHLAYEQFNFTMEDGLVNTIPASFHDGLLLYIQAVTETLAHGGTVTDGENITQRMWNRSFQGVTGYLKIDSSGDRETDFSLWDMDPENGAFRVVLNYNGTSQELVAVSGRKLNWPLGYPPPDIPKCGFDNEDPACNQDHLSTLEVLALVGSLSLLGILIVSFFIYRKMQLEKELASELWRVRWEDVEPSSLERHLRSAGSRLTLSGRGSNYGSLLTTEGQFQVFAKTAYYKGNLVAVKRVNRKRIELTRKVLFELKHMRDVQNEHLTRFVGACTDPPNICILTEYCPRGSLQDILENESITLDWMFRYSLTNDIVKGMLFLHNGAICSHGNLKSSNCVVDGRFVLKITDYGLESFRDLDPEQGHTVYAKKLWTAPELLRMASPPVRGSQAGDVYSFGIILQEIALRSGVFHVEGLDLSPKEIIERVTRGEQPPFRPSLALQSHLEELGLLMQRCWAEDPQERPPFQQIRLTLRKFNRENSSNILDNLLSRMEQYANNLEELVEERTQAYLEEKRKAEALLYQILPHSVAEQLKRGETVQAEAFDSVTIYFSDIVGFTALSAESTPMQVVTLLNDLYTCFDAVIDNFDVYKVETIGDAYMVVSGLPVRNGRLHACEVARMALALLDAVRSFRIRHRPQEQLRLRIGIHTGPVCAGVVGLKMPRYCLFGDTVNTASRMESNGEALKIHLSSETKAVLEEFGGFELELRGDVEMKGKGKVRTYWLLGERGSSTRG

[4] = molecular target: T1, purified insulin degrading enzyme (IDE)

Row | Binder | % Efficacy [1] | EC50 (nM), NPR-B whole cell cGMP assay [1] | EC50 Ratio versus CNP22 [1] | Rescue Ratio Average [1] | % of control after 240 min (intact peptide by RP-HPLC after incubation with NEP) [2] | also measured
1 | EEEEEESGGGGSGGGKGANKKGLSKGCFGLKLDRIGSMSGLGC [C4(E6) [BC4]] | 136% | 302 nM | 20.5 | 18 | 94% | 
2 | EEEEEESGGGGSGGGQGANKQGLSKGCFGLKLDRIGSMSGLGC [C11(E6) [BC11]] | 95% | 888 nM | 60.4 | 120 | 102% | 
3 | EEEEEESGGGGSGGGKGANQKGLSKGCFGLKLDRIGSMSGLGC [C7(E6) [BC7]] | 95% | 1010 nM | 68.6 | 80 | 98% | 
4 | EEEEEESGGGGSGGGKGANKQGLSKGCFGLKLDRIGSMSGLGC [C6(E6) [BC6]] | 88% | 672 nM | 45.7 | 63 | 98% | 
5 | EEEEEESGGGGSGGGQGANQKGLSKGCFGLKLDRIGSMSGLGC [C10(E6) [BC10]] | 156% | 2470 nM | 168 | 90 | 102% | 
6 | EEEEEESGGGGSGGGQGANQQGLSKGCFGLKLDRIGSMSGLGC [C5(E6) [BC5]] | 96% | 2360 nM | 161 | 138 | 100% | 
7 | EEEEEESGGGGSGGGKGANQQGLSKGCFGLKLDRIGSMSGLGC [C9(E6) [BC9]] | 95% | 1170 nM | 79.3 | 87 | 98% | 
8 | EEEEEESGGGGSGGGQGANKKGLSKGCFGLKLDRIGSMSGLGC [C8(E6) [BC8]] | 97% | 719 nM | 48.9 | 52 | 103% | 
9 | GLSKGCFGLKLDRIGSMSGLGCPSSAAPRPNAPSTSA (ends and bridges not checked; cysteine pairing not given here) [CDNP-S3A4A5] |  |  |  |  |  | % loss in efficacy versus CDNP (NPR-B selective efficacy gain) [1]: 69%; Approximate fold gain in selectivity versus CDNP (NPR-B over NPR-A) [1]: 14.9 fold; Approximate fold selectivity NPR-B versus NPR-A [1]: 43.5 fold
10 | GLSKGCFGLKLDRIGSMSGLGCPSLRAPRPNAPSTSA (ends and bridges not checked; cysteine pairing not given here) [CDNP-A5] |  |  |  |  |  | % efficacy versus CDNP on NPR-B, membrane cGMP assay [1]: 87%; % loss in efficacy versus CDNP (NPR-B selective efficacy gain) [1]: -27%; Approximate fold gain in selectivity versus CDNP (NPR-B over NPR-A) [1]: 5.54 fold; Approximate fold selectivity NPR-B versus NPR-A [1]: 16.2 fold; EC50 ratio versus CDNP on NPR-B, membrane cGMP assay [1]: 0.24; % efficacy versus CDNP on NPR-A, membrane cGMP assay [3]: 114%; EC50 ratio versus CDNP on NPR-A, membrane cGMP assay [3]: 1.33
11 | GLSKGCFGLKLDRIGSMSGLGCPSLAAPRPNAPSTSA (ends and bridges not checked; cysteine pairing not given here) [CDNP-A4A5] |  |  |  |  |  | % efficacy versus CDNP on NPR-B, membrane cGMP assay [1]: 85%; % loss in efficacy versus CDNP (NPR-B selective efficacy gain) [1]: 36%; Approximate fold gain in selectivity versus CDNP (NPR-B over NPR-A) [1]: 0.98 fold; Approximate fold selectivity NPR-B versus NPR-A [1]: 2.86 fold; EC50 ratio versus CDNP on NPR-B, membrane cGMP assay [1]: 0.49; % efficacy versus CDNP on NPR-A, membrane cGMP assay [3]: 49%; EC50 ratio versus CDNP on NPR-A, membrane cGMP assay [3]: 0.48
12 | GLSKGCFGLKLDRIGSMSGLGCPSLADPRPNAPSTSA (ends and bridges not checked; cysteine pairing not given here) [CDNP-A4] |  |  |  |  |  | % efficacy versus CDNP on NPR-B, membrane cGMP assay [1]: 92%; % loss in efficacy versus CDNP (NPR-B selective efficacy gain) [1]: 2%; Approximate fold gain in selectivity versus CDNP (NPR-B over NPR-A) [1]: 17.8 fold; Approximate fold selectivity NPR-B versus NPR-A [1]: 52 fold; EC50 ratio versus CDNP on NPR-B, membrane cGMP assay [1]: 2.31; % efficacy versus CDNP on NPR-A, membrane cGMP assay [3]: 90%; EC50 ratio versus CDNP on NPR-A, membrane cGMP assay [3]: 41.1
13 | GLSKGCFGLKLDRIGSMSGLGCPSSRAPRPNAPSTSA (ends and bridges not checked; cysteine pairing not given here) [CDNP-S3A5] |  |  |  |  |  | % efficacy versus CDNP on NPR-B, membrane cGMP assay [1]: 118%; % loss in efficacy versus CDNP (NPR-B selective efficacy gain) [1]: 82%; Approximate fold gain in selectivity versus CDNP (NPR-B over NPR-A) [1]: 1.23 fold; Approximate fold selectivity NPR-B versus NPR-A [1]: 3.59 fold; EC50 ratio versus CDNP on NPR-B, membrane cGMP assay [1]: 1.08; % efficacy versus CDNP on NPR-A, membrane cGMP assay [3]: 36%; EC50 ratio versus CDNP on NPR-A, membrane cGMP assay [3]: 1.33
14 | GLSKGCFGLKLDRIGSMSGLGCPSSADPRPNAPSTSA (ends and bridges not checked; cysteine pairing not given here) [CDNP-S3A4] |  |  |  |  |  | % loss in efficacy versus CDNP (NPR-B selective efficacy gain) [1]: 27%; Approximate fold gain in selectivity versus CDNP (NPR-B over NPR-A) [1]: 28.5 fold; Approximate fold selectivity NPR-B versus NPR-A [1]: 83.2 fold
15 | SLRRSSCFGGRMDRIGAQSGLGCNSFRY [atrial natriuretic peptide (ANP)] |  |  |  |  |  | EC50 on NPR-A (nM), whole cell cGMP assay [3]: 1.4 nM
16 | EEEEEEHKLRGQEHPNARKYKGANKKGLSKGCFGLKLDRIGSMSGLGC [KB1(E6)] | 109% | 84.5 nM | 5.75 | 5.6 | 107% | 
17 | EEEEEEHGPQGQEHPNARKYKGANKKGLSKGCFGLKLDRIGSMSGLGC [KA1(E6)] | 108% | 144 nM | 9.79 | 8.2 | 108% | 
18 | EEEEEESGGGGSGGGGSGGGGGLSKGCFGLKLDRIGSMSGLGC [C1(E6) [BC1]] | 97% | 1740 nM | 118 | 122 | 99% | 
19 | GLSKGCFGLKLDRIGSMSGLGC [human CNP22] | 100% | 14.7 nM | 1 | 1 | 0% | EC50 on NPR-B (nM), whole cell cGMP assay [1]: 4.87 nM; Rescue Ratio versus CNP22 [1]: 1; reduction of ability to generate cGMP (NPRB cells) after 30 min with purified NEP [2]: 50%; reduction of ability to generate cGMP (NPRB cells) after 120 min with purified NEP [2]: 87%; reduction of ability to generate cGMP (NPRB cells) after 30 min with purified IDE [4]: 64%; reduction of ability to generate cGMP (NPRB cells) after 120 min with purified IDE [4]: 99%
20 | DDDDDDGGGGSGGGGSGGGGGLSKGCFGLKLDRIGSMSGLGC [D6-14AAlinker-CNP [C3]] |  |  |  |  | 101% | 
21 | GLSKGCFGLKLDRIGSMSGLGCGGGGSGGGGSGGGGDDDDDD [CNP-14AAlinker-D6 [C4]] | 156% | 2140 nM | 146 | 545 | 75% | 
